B1: Emerin (Homo sapiens), P50402 (parent)
chain: MDNYADLSDTELTTLLRRYNIPHGPVVGSTRRLYEKKIFEYETQRRRLSPPSSSAASSYSFSDLNSTRGDADMYDLPKKEDALLYQSKGYNDDYYEESYFTTRTYGEPESAGPSRAVRQSVTSFPDADAFHHQVHDDDLLSSSEEECKDRERPMYGRDSAYQSITHYRPVSASRSSLDLSYYPTSSSTSFMSSSSSSSSWLTRRAIRPENRAPGAGLGQDRQVPLWGQLLLFLVFVIVLFFIYHFMQAEEGNPF

Variants of: B1
Conditions: with lmna_human LMNA

| Variant | effect of a mutation on the interaction |
| --- | --- |
| MDNYADLSDTELTTLLRRYNIPHGPVVGSTRRLYEKKIFEYETQRRRLSPPSSSAASSYSFSDLNSTRGDADMYDLPKKEDALLYQSKGYNDDYYEESYFTTRTYGEPESAGPSRAVRQSVTSFPDADAFHHHVHDDDLLSSSEEECKDRERPMYGRDSAYQSITHYRPVSASRSSLDLSYYPTSSSTSFMSSSSSSSSWLTRRAIRPENRAPGAGLGQDRQVPLWGQLLLFLVFVIVLFFIYHFMQAEEGNPF [Q133H] | with no effect |
